# ± gives the standard deviation.
# Assay: protein stability index of a GFP-peptide fusion (GPS, HEK-293T) (PSI 1-6); higher = more stable
# [1] = treatment: DMSO, c terminus: a fixed tail appended
# [2] = treatment: MLN4924 1 uM, 8 h, c terminus: a fixed tail appended
# 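Also: 24-mer peptide tiles fused after GFP, lentivirally expressed, FACS-sorted into six equal bins by GFP/DsRed ratio, decoded by Illumina sequencing, PSI is the read-weighted mean bin number.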
Sequence,protein stability index [1],protein stability index [2],"protein stability index (treatment: DMSO, c terminus: native)","protein stability index (treatment: MLN4924 1 uM, 8 h, c terminus: native)"
NEARHNFGIVEIDGMLYILGGEDG [GAN],2.63 ± 0.37,2.72 ± 0.4,–,–
QRLIVGNSALKDKEDQFGRTPLMY [INVS],3.05 ± 0.31,3.31 ± 0.35,–,–
YPTCGIGYPVSSAFAFQNTFPHSI [SASS6],2.66 ± 0.55,2.49 ± 0.41,–,–
RDLEKQKEEVRAALEQREQDAVDQ [TRIM29],5.59 ± 0.08,5.66 ± 0.22,–,–
IREALHELLCCTNVSTKEGIHLAL [INTS4],2.41 ± 0.46,2.48 ± 0.3,–,–
RDAAIKKLATEAGVEVIVRISHTL [CRY1],2.83 ± 0.92,2.62 ± 0.68,–,–
LSPVLESPRDLQFSEIRETSAKVN [TNXB],4.9 ± 0.12,5.02 ± 0.34,–,–
QTSSSSSQSETSSAVSTPSPVTRT [DLC1],5.45 ± 0.22,5.28 ± 0.38,–,–
KHGIEYQSKPLLSAFADIIHSLKE [FADS1],2.51 ± 0.44,2.81 ± 0.49,–,–
LFGEKLSGTDAEETILNAFKMLDP [MYL5],3.56 ± 0.28,3.31 ± 0.35,–,–
AVIYLKKTPEEAYRALLSGSNPPY [CDC14A],2.21 ± 0.44,2.15 ± 0.46,–,–
SGRDRVGRQERGLPPSMERGYPPP [RBMX],4 ± 0.38,3.94 ± 0.19,–,–
GYHQVPGSAAPGSPLAADPACLGQ [FOXJ1],4.46 ± 0.22,4.29 ± 0.18,–,–
ALTYACAGGYVDVVKVLLESGASI [ANKRD17],2.64 ± 0.33,2.79 ± 0.48,–,–
RDYKIQASRTWCFYNTEDIKDWED [PTGFR],3.28 ± 0.36,3.68 ± 0.49,–,–
TEDSPLGTVVALLNVHDLDSEQNG [PCDHGA10],4.86 ± 0.18,4.94 ± 0.27,–,–
ILPKELQTWVRDHHPENGEEAVTV [ZNF24],3.92 ± 0.17,4.17 ± 0.25,–,–
IQPDDLINQLTFIMDANQTYLVSE [FAF2],2.32 ± 0.27,2.37 ± 0.31,–,–
SPRRSLYKLVGSPPWKEAFRQRCL [RPAIN],2.27 ± 0.26,2.4 ± 0.23,–,–
SKDWVFLNYTYKRFEGLTQRGSIP [STK38L],2.54 ± 0.78,2.48 ± 1,–,–
HAPKIGSNGVEMAAKFPSGSQRAR [SDE2],4.56 ± 0.13,4.62 ± 0.19,–,–
PHFQPDASLLQPVTPLGTSRWRKI [NCF4],3.58 ± 0.3,3.73 ± 0.17,–,–
QQWFPSLELGHWLYQTELVENECY [TOR1AIP2],2.55 ± 0.54,2.34 ± 0.47,–,–

Sequence,protein stability index [1],protein stability index [2],"protein stability index (treatment: DMSO, c terminus: native)","protein stability index (treatment: MLN4924 1 uM, 8 h, c terminus: native)"
CRERWHNHLNPEVKKSCWTEEEDR [MYBL2],4.2 ± 0.4,4.34 ± 0.25,–,–
CSSSGKDGNLCLHVPNPPSGISFP [HESX1],3.15 ± 0.18,3.25 ± 0.33,–,–
RAPKVLGTTLVVGLLAGVGYFAFM [GDAP1],3.66 ± 0.29,3.17 ± 0.27,–,–
KIMEAESQKATRECEKSALTPGFS [FAN1],4.86 ± 0.29,4.84 ± 0.14,–,–
ILGPVVGGYLTELEDGFYLTAFIC [MFSD9],2.99 ± 0.34,3.05 ± 0.88,–,–
CQSGYFSSMFSGSWKESSMNIIEL [GMCL1],2.53 ± 0.37,2.34 ± 0.77,–,–
EKSGFSQHQNKSPPKVKAEDGMQC [DLC1],5.19 ± 0.33,5.22 ± 0.13,–,–
FTTLTDRELEEYRREVERKQKGSE [ADD1],4.53 ± 0.35,4.72 ± 0.4,–,–
ILSFTVIMVGFILYCSTPTRTAEP [SLC35F2],3.27 ± 0.65,2.77 ± 0.53,–,–
NAYHIERLMSFRPICSANHKESKM [CRYBA1],3.12 ± 0.16,3.29 ± 0.12,–,–
QVPRSPVIKISYSTPQGKGEVVKI [PWWP2B],2.73 ± 0.26,2.58 ± 0.26,–,–
QWLVSQLSAASPDTGHDSDKSDQS [TRAF3IP2],4.66 ± 0.16,4.73 ± 0.47,–,–
AVDGILHMFTPKLDKMLDPQVWRE [SLC6A17],2.27 ± 0.34,2.53 ± 0.25,–,–
NPELIKPKKLLNPVKASRSHQELH [FAM107A],4.21 ± 0.16,4.24 ± 0.26,–,–
ALWQVLARDCFATGRHYWEVDVQE [TRIM14],2.4 ± 0.65,2.4 ± 0.24,–,–
GDEMTSLSEYVSRMKETQKSIYYI [HSP90AB1],–,2.81 ± 0.3,–,–
VYSCAFSPDSSMLCSVGASKAVFL [WSB1],2.8 ± 0.5,2.86 ± 0.49,–,–
TKLPENQAIQMRLVDVACKHLTDT [INTS4],3.41 ± 0.11,3.58 ± 0.069,–,–
LQSEPHRAGVQWKFAGSFYFAITV [KCNK9],3.47 ± 0.43,2.82 ± 0.81,–,–
VTPEAKDLINKMLTINPAKRITAS [CAMK2D],3.29 ± 0.29,3.33 ± 0.2,–,–
APHHHHHHSHSGPEISRIIVDPTT [PLK2],4.22 ± 0.12,4.12 ± 0.22,–,–
LIPRTMADQQARRQERKPKDRRK [NFE2L1],–,–,5.32 ± 0.22,5.217 ± 0.028
WGCSCCPPETKHQALSGTPKKGPA [TSPAN10],4.13 ± 0.41,4.44 ± 0.26,–,–

Sequence,protein stability index [1],protein stability index [2],"protein stability index (treatment: DMSO, c terminus: native)","protein stability index (treatment: MLN4924 1 uM, 8 h, c terminus: native)"
DNPFGIYQKILAGKIDFPRHLDFH [PRKX],2.1 ± 0.33,2.23 ± 0.28,–,–
QEAAQLDMLLEKLPQVAEEISGPL [FLOT1],4.81 ± 0.29,4.76 ± 0.18,–,–
LKQRTVIEMFKSITHSTVGSKGEK [EHMT1],3.16 ± 0.18,3.17 ± 0.33,–,–
SPSTRGSPNRSLPSPGVLCGSARP [ATF4],4.49 ± 0.46,4.88 ± 0.18,–,–
ILDLSCNKLTTLPSDFCGLTHLVK [LRRC59],2.02 ± 0.38,2.09 ± 0.022,–,–
DRIRFTVNRRISIVGFGLYGSIHG [BTBD1],2.25 ± 0.61,2.32 ± 1.2,–,–
IIKTEKVDLELFPSPDMECADVPL [ETS1],3.99 ± 0.19,3.97 ± 0.22,–,–
CFIQSSHLIRHQITHTREEQPHGR [ZNF8],3.4 ± 0.12,3.37 ± 0.23,–,–
VLSSTTLLPRQPLPLGIKVYEDET [PALM],4.23 ± 0.21,4.18 ± 0.16,–,–
SKMDQLAKELTAEKRLEGQEEEED [CHGA],5.54 ± 0.34,5.42 ± 0.36,–,–
FVLNAAQCSMPLHVAPLLAAAGLH [NR2F2],3.13 ± 0.25,2.49 ± 0.48,–,–
GGTSVGSLGVPGSVGGVPGGTGSG [ZBTB22],4.41 ± 0.29,4.76 ± 0.088,–,–
AGTGAQAGQLMGFFKGIDQDIERG [LYSMD4],4.01 ± 0.37,4.01 ± 0.29,–,–
RGCGGTDIELDAARGDAVCTACGS [BRF1],4.9 ± 0.24,4.75 ± 0.26,–,–
KILHTAWHPAENIIAIAATNNLYI [PPP2R2C],2.81 ± 0.54,2.93 ± 0.53,–,–
TVQIICNTGYRLQNNENNISCVER [CFHR2],2.44 ± 0.4,2.64 ± 0.25,–,–
QGSRHWQKLREESAARVVLTSLLA [DUSP5],2.31 ± 0.25,2.44 ± 0.24,–,–
SPWNFLGDELYEQSDEEQDSVKVA [CLPTM1],5.32 ± 0.21,5.36 ± 0.4,–,–
ILLSWTPPRSDTIANYELVYKDGE [PTPRD],2.03 ± 0.41,2.23 ± 0.42,–,–
VRLQSQRPSMASELMPSSRLWSLS [SLC25A39],2.64 ± 0.32,2.58 ± 0.17,–,–
CDYSQYFKTIEELRDKIMATTIDN [KRT15],3.28 ± 0.12,3.22 ± 0.17,–,–
QLPISSENDSTPTVSTSEVTSQQE [TAF7L],5.53 ± 0.28,5.5 ± 0.13,–,–
EEETQFYISETVLAIDAIHQLGFI [STK38L],2.48 ± 0.51,2.58 ± 0.2,–,–

Sequence,protein stability index [1],protein stability index [2],"protein stability index (treatment: DMSO, c terminus: native)","protein stability index (treatment: MLN4924 1 uM, 8 h, c terminus: native)"
PGPGDDLCSDLEEAPEAELSQAPA [HES6],5.44 ± 0.23,5.43 ± 0.35,–,–
AVAHMKYMGKGSMTGLALKHMFER [MATN2],2.07 ± 0.3,2.34 ± 0.26,–,–
NFSKKIQQIHVVSQFKILVSLLEN [VPS39],2.64 ± 0.39,2.81 ± 0.66,–,–
EARGLRLSDLEDLEEEEEEEEEAE [IRX6],5.55 ± 0.41,5.5 ± 0.39,–,–
YTGEIKISENLDYEETGFYEIEIQ [PCDHGA10],2.97 ± 0.18,2.87 ± 0.46,–,–
TSYCELLQNKVPLLGSSTACIVVL [PPTC7],2.8 ± 0.1,2.55 ± 0.09,–,–
RERPLNVFCDMETDGGGWLVFQRR [TNXB],3 ± 0.98,2.79 ± 0.48,–,–
DHRGRMVKHQCCPGCGYFCTAGNF [EHMT1],2.79 ± 0.14,3.14 ± 0.17,–,–
VPVVTPTASTAPPVPATAPSPAPA [SNAP91],4.98 ± 0.17,5.05 ± 0.11,–,–
LVSVYPDKYCPLLIKEGGMPLLRD [ZER1],2.38 ± 0.23,2.42 ± 0.29,–,–
VKSIVVKGYNIWTGGPDACLRCWD [TLE6],2.37 ± 0.3,2.24 ± 0.43,–,–
ILDDGTISAHKPLLISSCDWMAAM [RHOBTB2],2.29 ± 0.24,2.12 ± 0.19,–,–
VEYFQQSAVAMYMLYEKQKQQNVA [ZBED1],2.4 ± 0.18,2.14 ± 0.28,–,–
SIALRNISLAKGPPGPKGDQGDEG [SCARA5],4.68 ± 0.09,4.86 ± 0.2,–,–
HPDSPATGAHWMRQPVSFHRVKLT [TBX6],3.16 ± 0.16,3.23 ± 0.32,–,–
KIEDFREEMWTFRGKIHAFRGQIL [CCDC70],2.41 ± 0.24,2.09 ± 0.31,–,–
PRVEYIDRPRCCLRGKECCINRFQ [BTBD1],2.42 ± 0.13,2.61 ± 0.28,–,–
CKAFSTCVSHLIIVTVHYGCASFI [OR10K2],2.88 ± 0.54,3.01 ± 0.57,–,–
LSTNDKTIKLWKITERDKRPEGYN [PPP2R2C],3.6 ± 0.28,3.79 ± 0.61,–,–
AVSCPYLPSNLLKKFRSSTSSSLG [KCNA4],2.54 ± 0.21,2.58 ± 0.2,–,–
